Reference: patent US20060246095A1, “Multiepitope polypeptides for cancer immunotherapy” (HADASIT MEDICAL RESEARCH SERVICES & DEVELOPMENT LTD., priority 2003, published 2006)

System: T cell clones specific for different gp100 and MART-1 antigens
Experiment: Uptake of MEP protein by DC and presentation to T cell clones (IFN-γ secretion, FIG. 2)
Assay type: cell-based, human
Conditions: DC incubated with protein 4 hours
Method: DC incubated with MEP-Mel protein were able to specifically stimulate T cell clones reactive to different MEP epitopes of gp100 and MART-1. T cell stimulation was estimated by the amount of IFN-γ secreted to the culture medium (pg/ml).
T cell clones tested: GP 100-209a and 209b specific for gp100 209-217 epitope, GP 100-280 specific for gp100 280-288 epitope, GP 100-154 specific for a gp100 epitope not present in MEP (used as control) and MART-1 specific for the epitope 27-35.
Immature DC were incubated with MEP protein for 4 hours. After DC maturation, dendritic cells were incubated in the presence of T cell clones specific for different gp100 and MART-1 antigens. T cell stimulation was estimated by measuring the interferon gamma (IFN-γ) secretion to the medium. […] A MART-1 specific T cell clone was also found to be stimulated.

B1: MEP-mel: melanoma multiepitope polypeptide, SEQ ID NO: 2 or 57; in Tables 2-9 delivered by transfecting DC with pcDNA3-MEP-Mel plasmid (protein)
chain: PGTMGSCRKSYYLEPGPVTVRKSYLIMDQVPFSVRKSYLYMDGTMSQVRKSYLAGIGILTVRKSYYLEPGPVTVALLIMDQVPFSVALLYMDGTMSQVALLLAGIGILTVSSLYLEPGPVTVAAYIMDQVPFSVSSLYMDGTMSQVAAYLAGIGILTV
MART-1 specific T cell clone
  T cell stimulation (IFN-γ secretion): stimulated
Clone recognizing gp100 epitope 280-288
  T cell stimulation (IFN-γ secretion): also stimulated
Clones 209a and 209b reactive to gp100 epitope 209-217
  T cell stimulation (IFN-γ secretion): highly stimulated
